This note sets out measurements from article doi:10.1101/2022.04.21.488985 (bioRxiv, 2022).

For this assay, the target named is T1, bovine serum albumin (Bos taurus, UniProt P02769).
T1 construct: also called BSA
The assay is described as follows: ELISA. For orientation: ELISA stands for enzyme-linked immunosorbent assay.

T1 sequence (P02769 25-607): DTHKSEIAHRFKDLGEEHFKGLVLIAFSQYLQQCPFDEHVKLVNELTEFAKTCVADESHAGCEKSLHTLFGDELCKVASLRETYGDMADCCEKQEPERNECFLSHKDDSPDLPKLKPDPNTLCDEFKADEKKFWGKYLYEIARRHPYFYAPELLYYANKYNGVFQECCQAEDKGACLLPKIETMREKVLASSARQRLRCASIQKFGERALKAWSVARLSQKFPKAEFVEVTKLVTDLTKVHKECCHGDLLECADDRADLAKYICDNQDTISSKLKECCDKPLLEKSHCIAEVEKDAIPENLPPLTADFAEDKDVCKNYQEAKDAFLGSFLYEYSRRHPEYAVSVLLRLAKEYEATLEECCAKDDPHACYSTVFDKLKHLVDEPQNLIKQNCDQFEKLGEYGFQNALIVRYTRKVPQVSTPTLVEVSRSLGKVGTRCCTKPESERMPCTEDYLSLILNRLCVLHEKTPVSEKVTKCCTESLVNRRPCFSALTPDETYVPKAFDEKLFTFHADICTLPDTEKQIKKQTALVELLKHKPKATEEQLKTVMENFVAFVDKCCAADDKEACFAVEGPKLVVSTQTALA

B1: D5 nanobody (camel VHH) (VHH)
VHH: AWQLVESGGGSVQPGGSLTLTCQASKSTFSTSGMRWERQAQGKGVEFVADISSDSTRKWYSDSVKGRFTISRSNWWRTVTLQMNDLKPEDTARYYCKDLESHHLRGQGTQVTVSS
notes: also called single domain antibody D5
On to B1, for which the binding result is given as “no binding”.
